# Data from publication PMC5670239, “Structural basis for mutually exclusive co-transcriptional nuclear cap-binding complexes with either NELF-E or ARS2” (Nature Communications, 2017).
# T1: CBC (Homo sapiens, UniProt P52298)
# T1 sequence (P52298 1-156): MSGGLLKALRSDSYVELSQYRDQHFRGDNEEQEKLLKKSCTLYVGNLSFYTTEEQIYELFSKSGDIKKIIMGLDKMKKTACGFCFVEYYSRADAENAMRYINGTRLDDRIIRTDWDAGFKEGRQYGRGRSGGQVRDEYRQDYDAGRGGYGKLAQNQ
# T1 sequence (Q09161 20-790 partner): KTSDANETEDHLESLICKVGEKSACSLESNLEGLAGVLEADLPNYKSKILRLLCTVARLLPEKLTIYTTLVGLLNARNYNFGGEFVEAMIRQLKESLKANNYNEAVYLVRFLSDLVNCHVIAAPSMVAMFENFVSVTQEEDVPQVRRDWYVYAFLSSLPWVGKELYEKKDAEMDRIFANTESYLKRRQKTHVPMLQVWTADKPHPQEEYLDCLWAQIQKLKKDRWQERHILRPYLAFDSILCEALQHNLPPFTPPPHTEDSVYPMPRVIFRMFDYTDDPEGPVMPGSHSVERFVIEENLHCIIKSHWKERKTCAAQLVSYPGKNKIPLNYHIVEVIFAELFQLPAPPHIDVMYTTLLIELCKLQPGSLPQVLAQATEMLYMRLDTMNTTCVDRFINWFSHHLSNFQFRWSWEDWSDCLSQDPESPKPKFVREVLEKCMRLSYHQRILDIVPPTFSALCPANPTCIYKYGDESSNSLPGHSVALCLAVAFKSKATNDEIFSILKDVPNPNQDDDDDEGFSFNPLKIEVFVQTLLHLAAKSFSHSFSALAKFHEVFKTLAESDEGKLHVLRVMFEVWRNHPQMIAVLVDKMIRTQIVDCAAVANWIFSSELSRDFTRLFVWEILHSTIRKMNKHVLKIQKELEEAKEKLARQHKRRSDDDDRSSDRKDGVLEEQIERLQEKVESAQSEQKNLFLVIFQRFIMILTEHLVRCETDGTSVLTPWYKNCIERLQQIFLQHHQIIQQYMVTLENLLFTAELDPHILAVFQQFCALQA
# T2: m^7GTP-CBC (Homo sapiens, UniProt P52298+Q09161)
# T2 construct: 6-histidine tag (pETM30 vector) (N, cleaved yes); made in house; host or cells: CBP20 in E. coli Rosetta 2; CBP80ΔNLS in High Five insect cells; heterodimer reconstituted on Ni-sepharose
# T2 sequence (Q09161 20-790): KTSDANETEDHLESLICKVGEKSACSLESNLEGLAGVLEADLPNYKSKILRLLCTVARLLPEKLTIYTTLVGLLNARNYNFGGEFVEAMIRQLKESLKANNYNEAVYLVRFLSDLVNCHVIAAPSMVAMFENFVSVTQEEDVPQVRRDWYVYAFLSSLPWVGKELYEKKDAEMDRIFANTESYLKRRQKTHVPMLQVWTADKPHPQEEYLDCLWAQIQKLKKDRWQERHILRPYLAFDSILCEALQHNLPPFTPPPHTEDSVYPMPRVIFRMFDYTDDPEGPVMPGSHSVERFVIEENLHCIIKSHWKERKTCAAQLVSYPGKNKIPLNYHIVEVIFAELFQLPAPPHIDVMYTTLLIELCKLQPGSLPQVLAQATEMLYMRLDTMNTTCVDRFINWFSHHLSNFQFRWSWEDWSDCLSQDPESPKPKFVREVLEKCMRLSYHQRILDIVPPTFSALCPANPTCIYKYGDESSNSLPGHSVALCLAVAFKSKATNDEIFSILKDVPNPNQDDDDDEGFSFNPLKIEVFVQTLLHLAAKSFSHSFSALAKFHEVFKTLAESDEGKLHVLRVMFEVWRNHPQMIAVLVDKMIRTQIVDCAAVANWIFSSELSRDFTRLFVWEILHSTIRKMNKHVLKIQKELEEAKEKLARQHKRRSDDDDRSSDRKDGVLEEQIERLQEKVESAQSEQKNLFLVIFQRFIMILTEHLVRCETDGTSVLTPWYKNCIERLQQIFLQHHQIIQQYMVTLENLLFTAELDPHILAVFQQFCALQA
# T2 sequence (P52298 1-156): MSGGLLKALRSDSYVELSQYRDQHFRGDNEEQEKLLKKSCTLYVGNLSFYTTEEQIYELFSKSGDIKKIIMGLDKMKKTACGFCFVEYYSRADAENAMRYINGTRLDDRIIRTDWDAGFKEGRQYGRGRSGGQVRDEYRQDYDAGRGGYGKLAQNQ
# Experiments:
# CBC [1] = molecular target: T1, CBC; test: Size exclusion chromatography (gel filtration) co-elution with CBC, with m^7GTP; type: binding; conditions: gel filtration with 500 µM m^7GTP, fractions analysed by SDS-PAGE
# Experimental: Fig. 1 The interaction of CBC with ARS2 is enhanced in the presence of m^7GTP. a Schematic diagram of the domain structure of ARS2 based on ref. [26]. b Gel filtration chromatogram and Coomassie-stained SDS-PAGE of CBC-ARS2 in the presence and absence of m^7GTP. Purified recombinant CBC and ARS2^147–871 were mixed with (orange) or without (blue) 500 µM m^7GTP and subjected to gel filtration. Their elution profiles were overlaid (left) and single fractions analysed by SDS-PAGE (middle and right). Purified recombinant CBC and C-terminally truncated ARS2^147–845 were mixed with 500 µM m^7GTP and analysed in a similar way (bottom left). c ITC data and curve fit to derive the affinity of different ARS2 constructs for CBC. CBC or m^7GTP-CBC in the sample cell was titrated by ARS2. […] K D values and standard deviation represent the average from at least two independent experiments. d Sequence alignment of the C-terminus of ARS2. Conserved residues are highlighted in red. Figure made with ESPript[54]
# Fig. 2 The interaction of CBC with NELF-E is enhanced in the presence of m^7GTP. a Schematic diagram of the domain structure of NELF-E. b Gel filtration chromatogram and Coomassie-stained SDS-PAGE of CBC-NELF-E in the presence and absence of m^7GTP. Purified recombinant CBC and NELF-E were mixed with (orange) or without (green) 500 µM m^7GTP and subjected to gel filtration. Their elution profiles were overlaid (left) and single fractions analysed by SDS-PAGE (middle and right). Purified recombinant CBC and NELF-E^244–360 were mixed together with 500 µM m^7GTP and similarly analysed (bottom left). c ITC data and curve fit to derive the affinity of different NELF-E constructs for CBC. CBC or m^7GTP-CBC in the sample cell was titrated by NELF-E^244–380 or NELF-E^360–380. The data were presented as described in the caption to Fig. 1c. d Sequence alignment of the C-terminus of NELF-E. Conserved residues are highlighted in red. Figure made with ESPript[54]
# CBC [2] = molecular target: T1, CBC; test: ITC, binding to CBC without cap analogue; conditions: ITC (MicroCal ITC200), 25 °C, 20 mM HEPES, 120 mM NaCl, 2 mM TCEP, pH 7.8, single-site fit; no cap analogue pre-bound; mean ± SD of at least two independent experiments; SD
# Description: (§1) hARS2 isoform-4 (871 residues, UniProt:Q9BXP5-4, also known as isoform-e, NP_001122326) constructs (residues 147–871, 147–845, 763–871, 763–845, 827–871) hNELF-E (NM_002904.5) (244–380, 244–360) and hPHAX (NM_032177.3) (1–394, 103–294, 103–308, 103–327) were cloned into pETM11 (EMBL). Full-length hNELF-E (1–380) was cloned into pFASTBac and CBP20 into pETM30. Primers used are given in Supplementary Table 2. All constructs were expressed in E. coli Rosetta 2 (Novagen), except full-length NELF-E and CBP80ΔNLS (CBP80 with residues 1–19 deleted[2]), which were expressed in High Five insect cells (Life Technology). Cells were harvested and lysed by sonication in lysis buffer containing 50 mM HEPES, pH 7.8, 300 mM NaCl, 10% (v/v) glycerol, 5 mM β-mercaptoethanol. Lysates were clarified by centrifugation and applied on an equilibrated Ni-sepharose column (GE Healthcare), washed with 20 mM imidazole in lysis buffer, and eluted with 300 mM imidazole in lysis buffer. While dialysing into 20 mM HEPES, pH 7.8, 120 mM NaCl, 10% (v/v) glycerol, 5 mM β-mercaptoethanol, the N-terminal 6-histidine-tag was cleaved with His-tagged Tobacco Etch Virus (TEV) protease overnight in a ratio 1:100 mg TEV per mg protein. The cleaved protein was further purified first on Ni-sepharose to remove TEV and then using an anion exchange column (HiTrap Q, GE Healthcare) followed if necessary by a Heparin column (GE Healthcare). In both cases a NaCl gradient from 50 to 800 mM in 20 mM HEPES 7.8, 0.5 mM tris(2-carboxyethyl)phosphine was used. To reconstitute the CBC heterodimer, cleared His-tagged CBP20 lysate was first immobilised on a Ni-sepharose column. After washing the column with lysis buffer, the cleared CBP80 lysate was applied to the column and further purification steps performed as described above. To remove the access of CBP20 the flow through of the Ni-column after TEV cleavage was loaded on an anion exchange column (HiTrap Q, GE Healthcare) and CBC eluted by a NaCl gradient as described above. In the text we refer to CBP80ΔNLS and CBP80ΔNLS-CBP20 as CBP80 and CBC, respectively. ARS2^845–871, NELF-E^354–380, and NELF-E^360–380 peptides, with or without FAM label at the N-terminus, were purchased from GenScript.
# m^7GTP-CBC = molecular target: T2, m^7GTP-CBC; test: ITC, binding to CBC in the presence of the cap analogue m^7GTP; conditions: ITC, 25 °C, 20 mM HEPES, 120 mM NaCl, 2 mM TCEP, pH 7.8, CBC bound to m^7GTP, mean ± SD of at least two independent experiments
# Description: as §1
Molecule,Interaction with CBC by SEC in the presence of m^7GTP (CBC [1]),Kd (CBC [2]),also measured
"NELF-E 244–360: NELF-E fragment that lacks the last 20 residues (protein, UniProt P18615 244-360, looked up, fragment) GPFRRSDSFPERRAPRKGNTLYVYGEDMTPTLLRGAFSPFGNIIDLSMDPPRNCAFVTYEKMESADQAVAELNGTQVESVQLKVNIARKQPMLDAATGKSVWGSLAVQNSPKGCHRD",no stable complex is observed by SEC,,
"PHAX 103–294: human PHAX residues 103–294, minimal CBC binding region (protein, UniProt Q9H814 103-294, looked up, fragment) SQKPPVAGGKKINNIWGAVLQEQNQDAVATELGILGMEGTIDRSRQSETYNYLLAKKLRKESQEHTKDLDKELDEYMHGGKKMGSKEEENGQGHLKRKRPVKDRLGNRPEMNYKGRYEITAEDSQEKVADEISFRLQEPKKDLIARVVRIIGNKKAIELLMETAEVEQNGGLFIMNGSRRRTPGGVFLNLLK",,850 ± 210 nM,
"PHAX 103–308: human PHAX residues 103–308 (protein, UniProt Q9H814 103-308, looked up, fragment) SQKPPVAGGKKINNIWGAVLQEQNQDAVATELGILGMEGTIDRSRQSETYNYLLAKKLRKESQEHTKDLDKELDEYMHGGKKMGSKEEENGQGHLKRKRPVKDRLGNRPEMNYKGRYEITAEDSQEKVADEISFRLQEPKKDLIARVVRIIGNKKAIELLMETAEVEQNGGLFIMNGSRRRTPGGVFLNLLKNTPSISEEQIKDIF",,600 ± 140 nM,
"ARS2^147–845: C-terminally truncated ARS2, residues 147–845 (protein, UniProt Q9BXP5 147-845, looked up, fragment) PVMKTFKEFLLSLDDSVDETEAVKRYNDYKLDFRRQQMQDFFLAHKDEEWFRSKYHPDEVGKRRQEARGALQNRLRVFLSLMETGWFDNLLLDIDKADAIVKMLDAAVIKMEGGTENDLRILEQEEEEEQAGKPGEPSKKEEGRAGAGLGDGERKTNDKDEKKEDGKQAENDSSNDDKTKKSEGDGDKEEKKEDSEKEAKKSSKKRNRKHSGDDSFDEGSVSESESESESGQAEEEKEEAEEALKEKEKPKEEEWEKPKDAAGLECKPRPLHKTCSLFMRNIAPNISRAEIISLCKRYPGFMRVALSEPQPERRFFRRGWVTFDRSVNIKEICWNLQNIRLRECELSPGVNRDLTRRVRNINGITQHKQIVRNDIKLAAKLIHTLDDRTQLWASEPGTPPLPTSLPSQNPILKNITDYLIEEVSAEEEELLGSSGGAPPEEPPKEGNPAEINVERDEKLIKVLDKLLLYLRIVHSLDYYNTCEYPNEDEMPNRCGIIHVRGPMPPNRISHGEVLEWQKTFEEKLTPLLSVRESLSEEEAQKMGRKDPEQEVEKFVTSNTQELGKDKWLCPLSGKKFKGPEFVRKHIFNKHAEKIEEVKKEVAFFNNFLTDAKRPALPEIKPAQPPGPAQILPPGLTPGLPYPHQTPQGLMPYGQPRPPILGYGAGAVRPAVPTGGPPYPHAPYGAGRGNYDAFRGQGGY",failed to bind,,
"ARS2 763–845: human ARS2 isoform 4 residues 763–845, lacks the C-terminal 27 amino acids (protein, UniProt Q9BXP5 763-845, looked up, fragment, isoform 4, human ARS2 isoform 4 residues 763–845, lacks the C-terminal 27 amino acids) PEIKPAQPPGPAQILPPGLTPGLPYPHQTPQGLMPYGQPRPPILGYGAGAVRPAVPTGGPPYPHAPYGAGRGNYDAFRGQGGY",,,K D (m^7GTP-CBC): failed to bind
"ARS2 763–871: human ARS2 isoform 4 residues 763–871, E. coli expressed (protein, UniProt Q9BXP5 763-871, looked up, fragment, isoform 4, human ARS2 isoform 4 residues 763–871, E. coli expressed) PEIKPAQPPGPAQILPPGLTPGLPYPHQTPQGLMPYGQPRPPILGYGAGAVRPAVPTGGPPYPHAPYGAGRGNYDAFRGQGGYPGKPRNRMVRGDPRAIVEYRDLDAPD",,,Kd (m^7GTP-CBC; SD): 1000 ± 300 nM
